Test results published in the RNAGym collection of RNA variant scans (doi:10.1073/pnas.2313332121).

B1: TPR t1 (parent)
chain: GACCAAUCUGCCCUCAGAGCUCGAGAACAUCUUCGGAUGCAGAGGAGGCAGGCUUCGGUGGCGCGAUAGCGCCAACGUCCUCAACCUCCAAUGCAUCCCACCACAUGAUGAUGCCUGAAGAGCCUUGGUUUUUUG

Variants of: B1
Assay: polymerase ribozyme fitness, log enrichment relative to wild type (log ratio); higher = more active; in vitro selection for triplet polymerase activity
Procedure, shortened: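 A single round of triplicate in vitro selection, including frozen incubation at −7 °C, was applied to PCR-built, transcribed mutant libraries of each subunit of a heterodimeric triplet polymerase ribozyme. Illumina sequencing of input and output libraries retained genotypes with ≥10 input reads and ≥1 read per output. Fitness is the base-2 logarithm of genotype enrichment divided by wild-type enrichment, from inverse-variance-weighted replicate averages.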

First: G10C C49A G71A
Second: U9G C56U
The “polymerase ribozyme fitness (log ratio)” value of the first is lower: -2.07 for the first, -0.823 for the second.

First: G10A C20U G57U G113U
Second: U9A G39C C62A U78A U87G G110U
The “polymerase ribozyme fitness (log ratio)” value of the first is higher: -2.28 for the first, -5.8 for the second.

Going from U9G G10C C11A C15A A37G C49G C85U A95U C123U to U9G C72U C86A, the “polymerase ribozyme fitness (log ratio)” value rises from -3.19 to -0.508.

G10A A68G U112C and G10A C70A are within 0.2 log units of each other in “polymerase ribozyme fitness (log ratio)” value: -1.25 for the first, -1.32 for the second.

First: G10A C70G
Second: U9A C13G G35A
The “polymerase ribozyme fitness (log ratio)” value of the first is higher: -2.45 for the first, -3.79 for the second.

U9C C15A G44U G60C A91U and U9G C20A U131A are within 0.2 log units of each other in “polymerase ribozyme fitness (log ratio)” value: -1.82 for the first, -1.99 for the second.

First: U9G C97U A100C A108G
Second: G10C A46C C101A C123G U130A
The “polymerase ribozyme fitness (log ratio)” value of the first is lower: -2.87 for the first, -1.67 for the second.

Compared with G10A G39U G42A C124A, U9G A41U U81C U96A is lower in “polymerase ribozyme fitness (log ratio)” value: -0.542 for the first, -2.65 for the second.

Compared with G10A A37U G47C U112C U131A, U9C C15G A43U is lower in “polymerase ribozyme fitness (log ratio)” value: -0.391 for the first, -1.5 for the second.

Compared with U9G C40A C76U C114A, G10A G42U is higher in “polymerase ribozyme fitness (log ratio)” value: -2.63 for the first, -1.32 for the second.

Compared with U9A C11U A100U, G10C A43U C62A C114U U116C U133G is lower in “polymerase ribozyme fitness (log ratio)” value: -0.0164 for the first, -6.43 for the second.

Going from U9A C86G to G10A C98U C115A, the “polymerase ribozyme fitness (log ratio)” value falls from 0.0417 to -2.67.

First: U9A C53U
Second: U9G C12G G93C
The “polymerase ribozyme fitness (log ratio)” value of the first is higher: 0.789 for the first, -0.487 for the second.

Compared with U9C C53U G69C, U9G A95C U130A is lower in “polymerase ribozyme fitness (log ratio)” value: -0.176 for the first, -0.961 for the second.

Going from U9G G57A U78A A100C to U9G G23U, the “polymerase ribozyme fitness (log ratio)” value falls from -1.29 to -6.6.

Going from G10A C15U to G10A C102A, the “polymerase ribozyme fitness (log ratio)” value rises from -2.8 to -1.65.

Going from G10A A74G A91C C124G to U9A C13G A26C G63C G110A, the “polymerase ribozyme fitness (log ratio)” value falls from -0.108 to -5.86.

U9C C28U G36U A121G and U9A A83U are within 0.2 log units of each other in “polymerase ribozyme fitness (log ratio)” value: 0.0298 for the first, 0.0435 for the second.

Going from U9C C13U A27U A46C G52A G113A to U9C C70U, the “polymerase ribozyme fitness (log ratio)” value rises from -6.07 to -0.0921.

Going from G10A C80U to U9A G120C, the “polymerase ribozyme fitness (log ratio)” value rises from -0.522 to 1.21.

Compared with G10A G44U, G10A G71C is higher in “polymerase ribozyme fitness (log ratio)” value: -1.5 for the first, -0.717 for the second.

Compared with U9G A18C G117A, U9G U92G is lower in “polymerase ribozyme fitness (log ratio)” value: 0.733 for the first, -1.92 for the second.

Going from U9G G17U G60C U96C C104U G117A to G10C C13A G57U G61C A111U, the “polymerase ribozyme fitness (log ratio)” value falls from -3.16 to -5.2.

Going from G10C C73A C101U U130C to U9A A100U, the “polymerase ribozyme fitness (log ratio)” value rises from -0.689 to 0.21.

Compared with G10C G63A A75G C123U, U9G C49A C104A is lower in “polymerase ribozyme fitness (log ratio)” value: -0.173 for the first, -1.57 for the second.

First: U9C U54A C101U
Second: U9A C62A C85G U131C
The “polymerase ribozyme fitness (log ratio)” value of the first is higher: 0.158 for the first, -1.16 for the second.

Compared with U9C C31U A37U, U9A G10C C13U C40A C80A G122A is higher in “polymerase ribozyme fitness (log ratio)” value: -5.02 for the first, -3.43 for the second.

Going from U9G A103U U126A G127C to U9C U81A U116A G122U C124U, the “polymerase ribozyme fitness (log ratio)” value rises from -5.16 to -0.783.

Compared with U9G C53A A95C U112G, U9A G71A C85A G93A C102A is lower in “polymerase ribozyme fitness (log ratio)” value: -0.929 for the first, -3.84 for the second.

Compared with U9G U78C C89U, U9G C12U C13G G47C C56U is lower in “polymerase ribozyme fitness (log ratio)” value: -0.533 for the first, -1.38 for the second.

Compared with G10A C97U C101U A105G U130G, U9A U32A C62U C114A is higher in “polymerase ribozyme fitness (log ratio)” value: -5.15 for the first, -4.44 for the second.

Going from U9A C64U G117A to U9G C40G C94U C123A U125A, the “polymerase ribozyme fitness (log ratio)” value falls from 0.77 to -0.873.

Compared with G10U A43G G47A A74G, U9A C34U A37C A46U C56U G107C C114U G122A G127C is lower in “polymerase ribozyme fitness (log ratio)” value: -3.06 for the first, -7.05 for the second.

Going from G10C C11U C104A to G10A A18C G122A C123G, the “polymerase ribozyme fitness (log ratio)” value rises from -0.93 to -0.417.

First: G10A G52A G60A C79A C115A U132A
Second: U9G C70U
The “polymerase ribozyme fitness (log ratio)” value of the first is lower: -1.53 for the first, -0.679 for the second.

First: U9G C13U C73U A119G
Second: G10U A37U G120C U129C
The “polymerase ribozyme fitness (log ratio)” value of the first is higher: 1.11 for the first, 0.637 for the second.

First: G10A C40A A111C
Second: G10A C13U G61U
The “polymerase ribozyme fitness (log ratio)” value of the first is lower: -1.11 for the first, -0.325 for the second.

U9G G57U and G10A U133G are within 0.2 log units of each other in “polymerase ribozyme fitness (log ratio)” value: -0.376 for the first, -0.322 for the second.

Compared with U9G G60A A90C, U9A U30C G44A G57U G60A U112G U125A is lower in “polymerase ribozyme fitness (log ratio)” value: -0.347 for the first, -5.02 for the second.

First: G10A G47C C89U C124G
Second: U9A G63C A84U G120A
The “polymerase ribozyme fitness (log ratio)” value of the first is lower: -0.208 for the first, 0.752 for the second.

Going from U9G C72G to U9G C72G U87G, the “polymerase ribozyme fitness (log ratio)” value rises from -0.437 to -0.102.

For G10C C73A G128A, the “polymerase ribozyme fitness (log ratio)” value was -2.
